Residue numbers refer to the chain shown, from its start. Starred links: 1 amine or outer side, 2 acyl side, 3 side chain; linkers in the order of their positions; H or OH if unused. Non-standard residues stand in square brackets, D forms with d. Groups on a side chain read outwards from the residue. *: point of attachment. C20 diacid = O=C(O)CCCCCCCCCCCCCCCCCCC(=O)*; γGlu = O=C(O)[C@H](CCC(=O)[*:2])N[*:1]; Aib = CC(C)(N)C(=O)O
T1: human GIP receptor (human, UniProt P48546 22-466)
T1 sequence (looked up): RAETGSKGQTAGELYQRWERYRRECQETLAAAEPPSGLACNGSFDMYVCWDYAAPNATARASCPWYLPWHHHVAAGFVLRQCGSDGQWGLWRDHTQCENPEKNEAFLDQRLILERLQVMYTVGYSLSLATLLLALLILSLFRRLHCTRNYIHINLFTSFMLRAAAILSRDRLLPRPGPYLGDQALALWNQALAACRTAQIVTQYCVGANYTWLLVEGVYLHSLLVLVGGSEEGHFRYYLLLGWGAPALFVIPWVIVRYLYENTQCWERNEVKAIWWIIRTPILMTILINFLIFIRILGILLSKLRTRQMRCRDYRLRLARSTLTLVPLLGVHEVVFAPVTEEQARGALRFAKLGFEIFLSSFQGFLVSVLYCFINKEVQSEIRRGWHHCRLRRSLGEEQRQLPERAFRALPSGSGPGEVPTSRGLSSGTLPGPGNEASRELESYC

B1: Compound 20 (peptide)
peptide: YAEGTFISDYSIELDKKAQRAFVEWLLAQGPSSGAPPPS
modifications: Aib at 2; Lys 17 side chain acylated: K((19-Carboxy-nonadecanoyl)-[(Piperazine-1-yl)-acetyl]-Peg3-Peg3); C-terminal amide (-NH2)
B2: Compound 21 (peptide)
peptide: B1 peptide with R20K, A21E, Q29A
modifications: Aib at 2; Lys 17 side chain acylated: K((19-Carboxy-nonadecanoyl)-[(Piperazine-1-yl)-acetyl]-Peg3-Peg3); C-terminal amide (-NH2)
B3: Compound 26 (peptide)
peptide: YAEGTFISDYSIELDKIAAQDFIEWLLAGPSSGAPPPSK
modifications: Aib at 2; Lys 39 side chain acylated: K((19-Carboxy-nonadecanoyl)-[(Piperazine-1-yl)-acetyl]-Peg3-Peg3); C-terminal amide (-NH2)
B4: Compound 33 (peptide)
peptide: YAEGTFISDYSIELDKKAAQDFIEWLLAGPSSGAPPPS
modifications: Aib at 2; Lys 17 side chain acylated: K((19-Carboxy-nonadecanoyl)-[(Piperazine-1-yl)-acetyl]-Peg3-Peg3); C-terminal amide (-NH2)
B5: Compound 37 (peptide)
peptide: B3 peptide with A2X
modifications: D-Ala at 2; Lys 39 side chain acylated: K((19-Carboxy-nonadecanoyl)-[(Piperazine-1-yl)-acetyl]-Peg3-Peg3); C-terminal amide (-NH2)

molecular target: T1, human GIP receptor; assay: cell-based or functional assay

Binder	EC50, hGIP-R level of cAMP (HEK293 cells expressing human GIP R)
B1	0.007 nM
B2	0.007 nM
H-Y[Aib]EGTFISDYSIELDKK([Peg3-Peg3-γGlu-C20 diacid])AQKEFVEWLLAAGPSSGAPPPS-NH2 [Compound 22]	0.005 nM
H-Y[Aib]EGTFISDYSIELDKIAQRAFIEWLLAGPSSGAPPPSK([Peg3-Peg3-γGlu-C20 diacid])-NH2 [Compound 23]	0.01 nM
H-Y[Aib]EGTFISDYSIELDKIAQKEFIEWLLAGPSSGAPPPSK([Peg3-Peg3-γGlu-C20 diacid])-NH2 [Compound 24]	0.008 nM
H-Y[Aib]EGTFISDYSIELDKIAAQDFIEWLLAGPSSGAPPPSK([Peg3-Peg3-γGlu-C20 diacid])-NH2 [Compound 25]	0.032 nM
B3	0.017 nM
H-Y[Aib]EGTFISDYSIELDKIAAQDFVEWLLAGPSSGAPPPSK([Peg3-Peg3-γGlu-C20 diacid])-NH2 [Compound 27]	0.013 nM
H-Y[Aib]EGTFISDYSIELDKIAQRAFIEWLLAQGPSSGAPPPSK([Peg3-Peg3-γGlu-C20 diacid])-NH2 [Compound 28]	0.007 nM
H-Y[Aib]EGTFISDYSIELDKK([Peg3-Peg3-γGlu-C20 diacid])AAQDFVNWLLAQGPSSGAPPPS-NH2 [Compound 10]	0.007 nM
H-Y[Aib]EGTFISDYSIELDKK([Peg3-Peg3-γGlu-C20 diacid])AAQAFVNWLLAGPSSGAPPPS-NH2 [Compound 29]	0.014 nM
H-Y[Aib]EGTFISDYSIELDKK([Peg3-Peg3-γGlu-C20 diacid])AAQDFVNWLLAAGPSSGAPPPS-NH2 [Compound 30]	0.009 nM
H-Y[Aib]EGTFISDYSIELDKK([Peg3-Peg3-γGlu-C20 diacid])AAQDFINWLLAGPSSGAPPPS-NH2 [Compound 31]	0.012 nM
H-Y[Aib]EGTFISDYSIELDKK([Peg3-Peg3-γGlu-C20 diacid])AAQDFIEWLLAGPSSGAPPPS-NH2 [Compound 32]	0.02 nM
B4	0.014 nM
H-Y[Aib]EGTFISDYSIELDK([Peg3-Peg3-γGlu-C20 diacid])IAQRAFIEWLLAQGPSSGAPPPS-NH2 [Compound 34]	0.011 nM
H-Y[Aib]EGTFISDYSK([Peg3-Peg3-γGlu-C20 diacid])ELDKIAQRAFIEWLLAQGPSSGAPPPS-NH2 [Compound 35]	0.008 nM
H-Y[dA]EGTFISDYSIELDKK([Peg3-Peg3-γGlu-C20 diacid])AQRAFIEWLLAQGPSSGAPPPS-NH2 [Compound 36]	0.006 nM
B5	0.016 nM
H-Y[Aib]EGTFISDYSIELDKK([Peg3-Peg3-γGlu-C20 diacid])AAQDFIEWLLAQGPSSGAPPPS-NH2 [Compound 38]	0.001 nM
H-Y[Aib]EGTFISDYSIELEKK([Peg3-Peg3-γGlu-C20 diacid])AAKEFVNWLLAQGPSSGAPPPS-NH2 [Compound 11]	0.009 nM
H-Y[Aib]EGTFISDYSIELDKK([Peg3-Peg3-γGlu-C20 diacid])AAQDFINWLLAQGPSSGAPPPS-NH2 [Compound 39]	0.007 nM

molecular target: human GLP-1 receptor (human, UniProt P43220 24-463); assay: cell-based or functional assay

Binder	EC50 hGLP1 R (cAMP, HEK293 cells expressing the GLP-1R)
B1	> 3 nM
B2	> 3 nM
H-Y[Aib]EGTFISDYSIELDKK([Peg3-Peg3-γGlu-C20 diacid])AQKEFVEWLLAAGPSSGAPPPS-NH2 [Compound 22]	> 10 nM
H-Y[Aib]EGTFISDYSIELDKIAQRAFIEWLLAGPSSGAPPPSK([Peg3-Peg3-γGlu-C20 diacid])-NH2 [Compound 23]	> 10 nM
H-Y[Aib]EGTFISDYSIELDKIAQKEFIEWLLAGPSSGAPPPSK([Peg3-Peg3-γGlu-C20 diacid])-NH2 [Compound 24]	> 10 nM
H-Y[Aib]EGTFISDYSIELDKIAAQDFIEWLLAGPSSGAPPPSK([Peg3-Peg3-γGlu-C20 diacid])-NH2 [Compound 25]	> 100 nM
B3	> 10 nM
H-Y[Aib]EGTFISDYSIELDKIAAQDFVEWLLAGPSSGAPPPSK([Peg3-Peg3-γGlu-C20 diacid])-NH2 [Compound 27]	> 10 nM
H-Y[Aib]EGTFISDYSIELDKIAQRAFIEWLLAQGPSSGAPPPSK([Peg3-Peg3-γGlu-C20 diacid])-NH2 [Compound 28]	> 3 nM
H-Y[Aib]EGTFISDYSIELDKK([Peg3-Peg3-γGlu-C20 diacid])AAQDFVNWLLAQGPSSGAPPPS-NH2 [Compound 10]	> 10 nM
H-Y[Aib]EGTFISDYSIELDKK([Peg3-Peg3-γGlu-C20 diacid])AAQAFVNWLLAGPSSGAPPPS-NH2 [Compound 29]	> 100 nM
H-Y[Aib]EGTFISDYSIELDKK([Peg3-Peg3-γGlu-C20 diacid])AAQDFVNWLLAAGPSSGAPPPS-NH2 [Compound 30]	> 10 nM
H-Y[Aib]EGTFISDYSIELDKK([Peg3-Peg3-γGlu-C20 diacid])AAQDFINWLLAGPSSGAPPPS-NH2 [Compound 31]	> 100 nM
H-Y[Aib]EGTFISDYSIELDKK([Peg3-Peg3-γGlu-C20 diacid])AAQDFIEWLLAGPSSGAPPPS-NH2 [Compound 32]	> 100 nM
B4	> 10 nM
H-Y[Aib]EGTFISDYSIELDK([Peg3-Peg3-γGlu-C20 diacid])IAQRAFIEWLLAQGPSSGAPPPS-NH2 [Compound 34]	> 10 nM
H-Y[Aib]EGTFISDYSK([Peg3-Peg3-γGlu-C20 diacid])ELDKIAQRAFIEWLLAQGPSSGAPPPS-NH2 [Compound 35]	> 3 nM
H-Y[dA]EGTFISDYSIELDKK([Peg3-Peg3-γGlu-C20 diacid])AQRAFIEWLLAQGPSSGAPPPS-NH2 [Compound 36]	> 10 nM
B5	> 10 nM
H-Y[Aib]EGTFISDYSIELDKK([Peg3-Peg3-γGlu-C20 diacid])AAQDFIEWLLAQGPSSGAPPPS-NH2 [Compound 38]	> 100 nM
H-Y[Aib]EGTFISDYSIELEKK([Peg3-Peg3-γGlu-C20 diacid])AAKEFVNWLLAQGPSSGAPPPS-NH2 [Compound 11]	> 3 nM
H-Y[Aib]EGTFISDYSIELDKK([Peg3-Peg3-γGlu-C20 diacid])AAQDFINWLLAQGPSSGAPPPS-NH2 [Compound 39]	> 100 nM

molecular target: T1, human GIP receptor; assay: cell-based or functional assay; remark: another data set of the same source

Binder	EC50 hGIP R (cAMP, HEK293 cells expressing the GIP R)
B1	0.006 nM
B2	0.006 nM
H-Y[Aib]EGTFISDYSIELDKK([Peg3-Peg3-γGlu-C20 diacid])AQKEFVEWLLAAGPSSGAPPPS-NH2 [Compound 22]	0.007 nM
H-Y[Aib]EGTFISDYSIELDKIAQRAFIEWLLAGPSSGAPPPSK([Peg3-Peg3-γGlu-C20 diacid])-NH2 [Compound 23]	0.005 nM
H-Y[Aib]EGTFISDYSIELDKIAQKEFIEWLLAGPSSGAPPPSK([Peg3-Peg3-γGlu-C20 diacid])-NH2 [Compound 24]	0.01 nM
H-Y[Aib]EGTFISDYSIELDKIAAQDFIEWLLAGPSSGAPPPSK([Peg3-Peg3-γGlu-C20 diacid])-NH2 [Compound 25]	0.008 nM
B3	0.032 nM
H-Y[Aib]EGTFISDYSIELDKIAAQDFVEWLLAGPSSGAPPPSK([Peg3-Peg3-γGlu-C20 diacid])-NH2 [Compound 27]	0.017 nM
H-Y[Aib]EGTFISDYSIELDKIAQRAFIEWLLAQGPSSGAPPPSK([Peg3-Peg3-γGlu-C20 diacid])-NH2 [Compound 28]	0.013 nM
H-Y[Aib]EGTFISDYSIELDKK([Peg3-Peg3-γGlu-C20 diacid])AAQDFVNWLLAQGPSSGAPPPS-NH2 [Compound 10]	0.008 nM
H-Y[Aib]EGTFISDYSIELDKK([Peg3-Peg3-γGlu-C20 diacid])AAQAFVNWLLAGPSSGAPPPS-NH2 [Compound 29]	0.007 nM
H-Y[Aib]EGTFISDYSIELDKK([Peg3-Peg3-γGlu-C20 diacid])AAQDFVNWLLAAGPSSGAPPPS-NH2 [Compound 30]	0.014 nM
H-Y[Aib]EGTFISDYSIELDKK([Peg3-Peg3-γGlu-C20 diacid])AAQDFINWLLAGPSSGAPPPS-NH2 [Compound 31]	0.009 nM
H-Y[Aib]EGTFISDYSIELDKK([Peg3-Peg3-γGlu-C20 diacid])AAQDFIEWLLAGPSSGAPPPS-NH2 [Compound 32]	0.012 nM
B4	0.02 nM
H-Y[Aib]EGTFISDYSIELDK([Peg3-Peg3-γGlu-C20 diacid])IAQRAFIEWLLAQGPSSGAPPPS-NH2 [Compound 34]	0.017 nM
H-Y[Aib]EGTFISDYSK([Peg3-Peg3-γGlu-C20 diacid])ELDKIAQRAFIEWLLAQGPSSGAPPPS-NH2 [Compound 35]	0.011 nM
H-Y[dA]EGTFISDYSIELDKK([Peg3-Peg3-γGlu-C20 diacid])AQRAFIEWLLAQGPSSGAPPPS-NH2 [Compound 36]	0.006 nM
B5	0.006 nM
H-Y[Aib]EGTFISDYSIELDKK([Peg3-Peg3-γGlu-C20 diacid])AAQDFIEWLLAQGPSSGAPPPS-NH2 [Compound 38]	0.017 nM
H-Y[Aib]EGTFISDYSIELEKK([Peg3-Peg3-γGlu-C20 diacid])AAKEFVNWLLAQGPSSGAPPPS-NH2 [Compound 11]	0.008 nM
H-Y[Aib]EGTFISDYSIELDKK([Peg3-Peg3-γGlu-C20 diacid])AAQDFINWLLAQGPSSGAPPPS-NH2 [Compound 39]	0.001 nM

From US10253078 (ZEALAND PHARMA A S, dated 2019)
